Test [1] deals with T1, hCCR8 antigen on hCCR8-transfected 293T cells (human, UniProt P51685 1-355).
T1 construct: whole, on cells; also called human CCR8
Description: flow cytometry on hCCR8-transfected 293T cells, FITC anti-human IgG Fc, median fluorescence, 4-parameter fit. (In general: Flow cytometry measures light scatter and fluorescence of single cells or particles in a stream.)
Description: (§1) Serially diluted antibodies or bispecifics were then added, with a maximum final concentration of 1000 nM and 3-fold dilution using PBS buffer. After incubating on ice for 30 mins, the plates were washed two times with FACS buffer (PBS buffer with 0.5 mg/ml BSA, 0.02% tween) and incubated with FITC anti-human IgG antibody (Goat Anti Human (IgG Fc) secondary antibody FITC, Abcam #ab97224, 1:1000) on ice for 30 mins, followed by two times wash with FACS buffer. […] Data were analyzed with GraphPad Prism. Median fluorescent intensity was plotted versus antibody concentration and EC50 was calculated by fitting the curve with the function of log (agonist) vs. response—Variable slope (four parameters).

For test [2], the target named is T2, hCD3 antigen on Jurkat clone E6-1 cells (human).
T2 construct: whole, on cells; also called human CD3; hCD3 (Jurkat cell)
T2 sequence (P07766 23-207, chain 1 of 4): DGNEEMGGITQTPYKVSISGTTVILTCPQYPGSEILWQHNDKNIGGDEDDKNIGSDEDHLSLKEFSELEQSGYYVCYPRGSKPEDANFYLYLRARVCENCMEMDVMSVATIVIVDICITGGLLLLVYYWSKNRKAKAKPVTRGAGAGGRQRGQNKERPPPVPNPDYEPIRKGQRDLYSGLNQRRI
T2 sequence (P09693 23-182, chain 2 of 4, further chain): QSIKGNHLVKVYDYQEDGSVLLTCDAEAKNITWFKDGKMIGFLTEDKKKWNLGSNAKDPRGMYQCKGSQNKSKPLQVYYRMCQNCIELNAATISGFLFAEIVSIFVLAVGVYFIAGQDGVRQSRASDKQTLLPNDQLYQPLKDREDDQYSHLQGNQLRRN
T2 sequence (P04234 22-171, chain 3 of 4, further chain): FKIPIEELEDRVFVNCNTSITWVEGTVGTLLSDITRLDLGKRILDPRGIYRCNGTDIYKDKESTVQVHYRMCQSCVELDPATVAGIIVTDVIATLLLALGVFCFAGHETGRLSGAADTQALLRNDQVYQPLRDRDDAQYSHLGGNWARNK
T2 sequence (P20963 22-164, chain 4 of 4, further chain): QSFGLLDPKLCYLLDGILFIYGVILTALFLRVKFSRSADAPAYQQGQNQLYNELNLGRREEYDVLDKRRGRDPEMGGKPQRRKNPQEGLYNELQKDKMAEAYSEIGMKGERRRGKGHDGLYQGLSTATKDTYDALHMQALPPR
Description: flow cytometry on Jurkat cells, FITC anti-human IgG Fc, median fluorescence, 4-parameter fit.
Description: as §1

As usually defined, the EC50 is the midpoint of the concentration-response curve. Read a low EC50 as a more potent agent.

T1 sequence (P51685 whole entry): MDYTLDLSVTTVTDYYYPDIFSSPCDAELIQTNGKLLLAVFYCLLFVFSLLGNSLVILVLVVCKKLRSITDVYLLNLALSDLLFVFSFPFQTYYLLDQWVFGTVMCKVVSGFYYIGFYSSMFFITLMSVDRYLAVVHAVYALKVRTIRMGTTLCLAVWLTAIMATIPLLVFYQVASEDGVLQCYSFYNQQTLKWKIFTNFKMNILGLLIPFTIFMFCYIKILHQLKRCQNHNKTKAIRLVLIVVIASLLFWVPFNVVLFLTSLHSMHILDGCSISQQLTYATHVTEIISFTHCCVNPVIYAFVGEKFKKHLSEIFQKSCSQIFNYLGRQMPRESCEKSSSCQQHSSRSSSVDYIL

B1: ABC753 (ABC753_hCCR8/hCD3_675, anti-hCCR8 x anti-hCD3 BsAb in ABC675 format) (bispecific antibody, human IgG1, kappa, N297A)
heavy 1: EVQLVESGGGLVQPGGSLRLSCAASGFPFNTFAMNWVRQAPGKGLEWLARIRSKSNNYATYYADSVKDRFTISRDNAKRSLYLQMNSLRAEDTAVYYCVRGKENNYGYAMDYWGQGTTVTVSSASTKGQVKPEAWLSSCPSPGPGRLQLVCHVSGFYPKPVWVMWMRGEQEQQGTQLSEILPNANWTWYLRATLDVADGEAAGLSCRVKHSSLEGQDIILYWRGSGDKTHTCPPCPAPELLGGPSVFLFPPKPKDTLMISRTPEVTCVVVDVSHEDPEVKFNWYVDGVEVHNAKTKPREEQYASTYRVVSVLTVLHQDWLNGKEYKCKVSNKALPAPIEKTISKAKGQPREPQVCTLPPSREEMTKNQVSLSCAVKGFYPSDIAVEWESNGQPENNYKTTPPVLDSDGSFFLVSKLTVDKSRWQQGNVFSCSVMHEALHNHYTQKSLSLSPGK
light 1: not shown
heavy 2: not shown
light 2: not shown
On to B1, for which the half-maximal effective concentration (EC50) was 2.14 nM in test [1] and 2.09 nM in test [2].

B2: ABC138 (anti-hCCR8 parental antibody) (antibody, human IgG1, kappa, V domains shown)
VH: EVQLVESGGGLVQPGGSLRLSCAASGFPFNTFAMNWVRQAPGKGLEWLARIRSKSNNYATYYADSVKDRFTISRDNAKRSLYLQMNSLRAEDTAVYYCVRGKENNYGYAMDYWGQGTTVTVSS
VL: DIVMTQSPLSLPVTPGEPASISCRSSKSLLHSNANTYLYWFLQKPGQSPQLLIYRMSNLASGVPDRFSGSGSGTDFTLKISRVEAEDVGVYYCMQHVEYPFTFGGGTKLEIKR
In the case of B2, in test [1], the EC50 was found to be 0.34 nM.

B3: ABC752 (ABC752_hCCR8/hCD3_673, anti-hCCR8 x anti-hCD3 BsAb in ABC673 format) (bispecific antibody, human IgG1, kappa, N297A)
heavy 1: EVQLVESGGGLVQPGGSLRLSCAASGFPFNTFAMNWVRQAPGKGLEWLARIRSKSNNYATYYADSVKDRFTISRDNAKRSLYLQMNSLRAEDTAVYYCVRGKENNYGYAMDYWGQGTTVTVSSASTKGQVKPEAWLSHCPSPGPGHLQLVCHVSGFYPKPVWVMWMRGEQEQQGTQRSEILPSADGTWYLRATLEVAAGEAADLSCRVKHSSLEGQDIVLYWEGSDKTHTCPPCPAPELLGGPSVFLFPPKPKDTLMISRTPEVTCVVVDVSHEDPEVKFNWYVDGVEVHNAKTKPREEQYASTYRVVSVLTVLHQDWLNGKEYKCKVSNKALPAPIEKTISKAKGQPREPQVCTLPPSREEMTKNQVSLSCAVKGFYPSDIAVEWESNGQPENNYKTTPPVLDSDGSFFLVSKLTVDKSRWQQGNVFSCSVMHEALHNHYTQKSLSLSPGK
light 1: not shown
heavy 2: not shown
light 2: not shown
Regarding B3, the results for the EC50 in test [1] and in test [2] were 2.9 nM and 2.57 nM, respectively.
